The source of these data is patent US6383761B1, “Methods and compositions for identifying modulators of G-protein-coupled receptors” (The Regents of the University of California, priority 1997, dated 2002).

For one data set, the target named is T1, D2 dopamine receptor (Homo sapiens, UniProt P14416).
T1 construct: expressed in transfected cells; host or cells: COS-7
The class given is cell-based.

A further data set deals with T2, m2 muscarinic receptor (Homo sapiens, UniProt P08172).
T2 sequence (P08172 1-466): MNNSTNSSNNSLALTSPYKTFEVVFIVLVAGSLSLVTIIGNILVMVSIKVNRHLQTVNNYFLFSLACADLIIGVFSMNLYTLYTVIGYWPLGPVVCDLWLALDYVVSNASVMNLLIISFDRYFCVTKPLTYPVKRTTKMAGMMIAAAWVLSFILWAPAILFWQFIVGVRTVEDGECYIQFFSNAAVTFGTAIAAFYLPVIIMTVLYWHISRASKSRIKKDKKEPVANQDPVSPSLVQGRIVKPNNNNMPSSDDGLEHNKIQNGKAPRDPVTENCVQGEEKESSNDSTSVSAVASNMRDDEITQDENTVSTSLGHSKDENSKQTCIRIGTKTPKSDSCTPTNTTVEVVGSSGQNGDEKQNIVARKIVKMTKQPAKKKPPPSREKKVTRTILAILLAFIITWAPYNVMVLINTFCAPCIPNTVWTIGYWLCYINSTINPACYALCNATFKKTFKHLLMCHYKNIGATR
Kind of data set: PI hydrolysis assay (IP1 accumulation) in COS-7 cells co-transfected with receptor and Gαq construct. The format is cell-based. The note with it: carbachol 100 μM, pertussis toxin pretreatment 500 ng/ml.

T1 sequence (P14416 whole entry): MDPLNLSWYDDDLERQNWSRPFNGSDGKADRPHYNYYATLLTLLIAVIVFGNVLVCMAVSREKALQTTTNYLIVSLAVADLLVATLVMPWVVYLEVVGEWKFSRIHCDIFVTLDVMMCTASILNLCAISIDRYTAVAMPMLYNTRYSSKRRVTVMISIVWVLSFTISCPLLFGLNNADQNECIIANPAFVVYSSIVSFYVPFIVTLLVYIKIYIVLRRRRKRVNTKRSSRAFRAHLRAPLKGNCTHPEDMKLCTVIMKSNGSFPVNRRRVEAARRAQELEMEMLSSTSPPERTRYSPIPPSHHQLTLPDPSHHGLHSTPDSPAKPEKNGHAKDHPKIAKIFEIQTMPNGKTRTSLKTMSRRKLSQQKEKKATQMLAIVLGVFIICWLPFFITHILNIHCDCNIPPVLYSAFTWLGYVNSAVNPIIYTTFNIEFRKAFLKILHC

pertussis toxin: the “block of agonist-induced PI response” value with D2 dopamine receptor and with m2 muscarinic receptor (m2 receptor co-expressed with −6q) was “partly blocked” throughout. Further, the “block of agonist-induced increase in inositol phosphate production” value at D2 dopamine receptor and on m2 muscarinic receptor (m2 receptor with vector DNA or WTq) was “almost completely blocked” throughout.
